Target: Spacer-GST
Assay: SPR (Biacore X-100)

B1: CRB0017_IgG4 (antibody, V domains shown)
VH: QVQLQQSGAELAKPGASVKMSCKASGYTFTSYWMHWVKQRPGQGLEWIGYINPSTGYTEYNQKFKDKATLTADKSSSTAYMQLGSLTSEDSAVYYCARGGYDDLGYWGQGTTLTVSS
VL: DIVITQDELSNPVTSGESVSISCRSSKSLLYKDGKTYLYWFLQRPGQSPQLPIYLMSTRASGVSDRFSGSGSGTDFTLEISRVKAEDVGVYYCQQLVEYPYTFGGGTKLEIK
B1 was tested. Which Kd did it give?
Its Kd is 2.15 nM.

Reference: patent US20150056210A1 (published 2015)
